The series can be described thus: yeast display, Sf9 membrane polyspecificity reagent, FACS + sequencing; frameworks hold sequencing errors. In outline:
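In a synthetic yeast display library (Saccharomyces cerevisiae BJ5465), nanobody expression was induced with galactose for 36–48 hours. FACS gates were set low and high (top ~1%) using anti-HA fluorescence for expression and streptavidin fluorescence for binding of the Sf9 membrane reagent. Each polyreactivity label is drawn from the gate of origin.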
As for “QVQLVESGGGLVQAGGSLRLSCAASGSTIRLYAMGWYRQAPGKERELVAAISVSGGSTHYADSVKGRFTISRDNAKNTVYLQMNSLKPEDTAVYYCNAAGNPVSRYHYDYWGQGTQVTVSS”, the “polyreactivity (PSR sort gate)” value is recorded as “high polyreactivity”.

For “QVQLVESGGGLVQAGGSLRLSCAASGSTISGYAMGWYRQAPGKERELVAAISSGGSTYYADSVKGRFTISRDNAKNTVYLQLNSLKPEDTAVFYCNVARSRYRYRYDYWGQGTQVTVSS”, the “polyreactivity (PSR sort gate)” value is on record as “high polyreactivity”.

On to “QVQLVESGGGLVQAGGSLRLSCAASGSTISSNAMGWYRQAPGKERELVAAIDSGGSTYYADSVKGRFTISRDNAKNTVYLQMNSLKPEDTAVYYCNPERETYDTGRAVLPGGYWGQGTQVTVSS”, for which the “polyreactivity (PSR sort gate)” value was “low polyreactivity”.

Turning to “QVQLVESGGGLVQAGGSLRLSCAASGSTISYNAMGWYRQAPGKERELVAAIRTSGGRTYYADSVKGRFTISRDNAKNTVYLQMNSLKPEDTAVYYCAKRWVYRYGYEYWGQGTQVTVSS”, the “polyreactivity (PSR sort gate)” value is listed as “high polyreactivity”.

Regarding “QVQLVESGGGLVQAGGSLRLSCAASGSTITGNTMGWYRQAPGKERELVAAITNGGSTYYADSVKGRFTISRDNAKNTVYLQMNSLKPEDTAVYYCAAESTFYGYDYWGQGTQVTVSS”, the “polyreactivity (PSR sort gate)” value is listed as “high polyreactivity”.

With “QVQLVESGGGLVQAGGSLRLSCAASGSTITVNDMGWYRQAPGKERELVAAITQRDGRTFYADSVKGRFTISRDNAKNTVYLQMNSLKPVDTSVYYFAADYVWYTYGDYDYWGLGTQVTVSS”, the “polyreactivity (PSR sort gate)” value is “low polyreactivity”.

Regarding “QVQLVESGGGLVQAGGSLRLSCAASGSTIVNNAMGWYIQAPGKERELVAAIRSSDGRTYYADSVKGRFTISRDNAKNTVYLQMNSLKPEDTAVYYCNRRYRKYSSAKYDYWGQGTQVTVSS”, the “polyreactivity (PSR sort gate)” value is on record as “high polyreactivity”.

As to “QVQLVESGGGLVQAGGSLRLSCAASGSTIVYYAMGWYRQAPGKERELVAAISGSGGSTYYADSVKGRFTISRDNAKNTVYLQMNSLKPEDTAVYYCAKSYGSHRKIRTSFGYWGQGTQVTVSS”, the “polyreactivity (PSR sort gate)” value is given as “high polyreactivity”.

Consider “QVQLVESGGGLVQAGGSLRLSCAASGSTIWFYVMGWYRQAPGKERELVATIRWSTSSTYADSVKGRFTISRDNAMNTVYLQMNILKPEDTAVYYCNAQYSQVNGYDYWGQGTQVTVSS”, for which the “polyreactivity (PSR sort gate)” value is reported as “low polyreactivity”.

With “QVQLVESGGGLVQAGGSLRLSCAASGSTIYDNAMGWYRQATGKESELVAAITWSVGRTYYADSVKGRFTISRDNAKNTVYLQMNSMKPEDTAVYYCAARSQDRTYFQVFVSDTPYNYWGQGTQVTVSS”, the “polyreactivity (PSR sort gate)” value is reported as “low polyreactivity”.

For “QVQLVESGGGLVQAGGSLRLSCAASGSTIYFNAMGRYRQAPGKERELAAGIRSSGGSTYYADSVKGRFTISRDNAKNTVYLQMISLKPEDTAVYYCAGVRYRELYWGQGTQVTVSS”, the “polyreactivity (PSR sort gate)” value is reported as “high polyreactivity”.

On to “QVQLVESGGGLVQAGGSLRLSCAASGSTIYGYAMGWYRQAPGKERELVAAISISGGGTYYADSVKGRFTISRDNAKNTVYLQMNSLKPEDTAVYYCARRYFWGQGTQVTVSS”, for which the “polyreactivity (PSR sort gate)” value is reported as “low polyreactivity”.

In the case of “QVQLVESGGGLVQAGGSLRLSCAASGSTIYGYGMGWYRQAPGKERELVAAITGSGDTTYYADSVKGRFTISRDNAKNNVYLQMNSLKPEDTAVYYCNARWHAEYDYWGQGTQVTVSS”, the “polyreactivity (PSR sort gate)” value was “low polyreactivity”.

As for “QVQLVESGGGLVQAGGSLRLSCAASGSTIYLYAMGWYRQAPGKERELVAAIRGRGGRTYYADSVKGRFTISRDNAKNTVYLQMNSLKPEDTAVDYCNADVYAYYRATTRFDYWGQGTQVTVSS”, the “polyreactivity (PSR sort gate)” value is “high polyreactivity”.

For the sequence “QVQLVESGGGLVQAGGSLRLSCAASGSTIYRYAMGWNRQAPGKERELVATISRTGARTNYADSVKGRFTISRDNAKNTVYLQMNSLKPEDTAVYYCAASAPYIYYWGQGTQVTVSS”, the “polyreactivity (PSR sort gate)” value is “high polyreactivity”.

For the sequence “QVQLVESGGGLVQAGGSLRLSCAASGSTIYTYAMGWYRPAPGKERELVAAISYRAGSTYYADSVKGRFTISRDNAKTSVYFQMNSLTPEDTAVYYCNVDGVVVGTKRGGYDYWGQGTQVTVSS”, the “polyreactivity (PSR sort gate)” value is recorded as “low polyreactivity”.

The values above are taken from the nanobody polyreactivity screen of Harvey et al. (2022).
